Laboratory results: PMC5416850 (Nucleic Acids Research, 2017)

Experiments:
[1] = biological target: Vibrio cholerae HigB2 toxin (Vibrio cholerae, UniProt Q9KMA6); test: crystal structure
crystal structure = biological target: the molecule itself; test: crystal structure
[2] = biological target: T1, Vibrio cholerae HigB2 toxin (Vibrio cholerae, UniProt Q9KMA6); test: ITC
T1 sequence: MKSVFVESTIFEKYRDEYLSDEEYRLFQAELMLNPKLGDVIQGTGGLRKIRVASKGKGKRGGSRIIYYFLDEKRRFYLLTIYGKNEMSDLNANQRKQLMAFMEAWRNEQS

SAXS = biological target: the molecule itself; test: SAXS

B1: nanobody Nb2 (VHH)
VHH: QVQLQESGGGLVQPGGSLRLSCAASGFTLDYYAIGWFRQAPGKEREGVSCISSSGGTTNYADSVKGRFTVSRDNAKNTVYLQMNSLKPEDTAVYYCVADFACPLIREYDYWGQGTQVTVSS
- binding result [1]: binds

B2: C-terminal domain of VcHigA2 (residues 38-104) (domain or fragment)
chain: LNISPDEIVSIREQFNMSRGVFARLLHTSSRTLENWEQGRSVPNGQAVTLLKLVQRHPETLSHIAEL
- binding result (crystal structure): binds

B3: VcHigA2_(3-22) peptide (peptide)
peptide: NRDLFAELSSALVEAKQHSEW
- binding result [2]: binds

B4: Vibrio cholerae HigA2 antitoxin, full length (natural protein)
chain: MSNRDLFAELSSALVEAKQHSEGKLTLKTHHVNDVGELNISPDEIVSIREQFNMSRGVFARLLHTSSRTLENWEQGRSVPNGQAVTLLKLVQRHPETLSHIAEL
- dH [2]: -26.6 ± 0.9 kcal/mol
- stoichiometry N (SAXS): 2

B5: nanobody Nb6 (VHH)
VHH: QVQLQESGGGLVQPGGSLRLSCAASGFTFSNYAMRWYRQAPGEEREFVAFISSVGGSTNYADSVKGRFTISRDNGKNTLYLQMNSLKPEDTAVYFCVARLSLISDSWGQGTQVTVSS
- binding result [1]: binds
